Assay results reported in paper PMC3983062.

Target: RRV ORF45 (R45), as expressed in RRV-infected rhesus fibroblasts (Rhesus monkey rhadinovirus (RRV), strain H26-95) (UniProt Q9J2K2)
Test: FRET or BRET; filter-based processed FRET (PFRET) on fixed RRV-infected RhF stained with labelled antibodies (Alexa488 donor, Alexa555 acceptor); regions of interest in the nuclei

RSK2 (p90 ribosomal S6 kinase 2), endogenous in rhesus fibroblasts (natural protein)
r (distance between the fluorophores, from FRET): 4.7 nm

pERK2 (phosphorylated, activated ERK2), endogenous in rhesus fibroblasts (from UniProt F7ECR3 1-360) (natural protein)
r (distance between the fluorophores, from FRET): 4.5 nm
